Measurements from US20210054071A1 (NANJING LEGEND BIOTECH, published 2021).
Like-named read-outs stand apart in the source and are kept apart here. One block for each binder: values may come before it.

What was measured:
[1] = molecular target: T1, TIGIT on TIGIT effector cells (UniProt Q495A1 22-244, limits assumed); test: cell-based or functional assay
T1 sequence (looked up): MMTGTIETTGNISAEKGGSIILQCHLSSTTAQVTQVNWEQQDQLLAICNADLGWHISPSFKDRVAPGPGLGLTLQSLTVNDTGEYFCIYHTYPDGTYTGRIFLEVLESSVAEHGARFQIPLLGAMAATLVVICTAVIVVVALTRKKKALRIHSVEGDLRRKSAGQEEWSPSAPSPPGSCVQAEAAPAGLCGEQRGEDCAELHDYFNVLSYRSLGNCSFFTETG

[2] = molecular target: T2, human TIGIT expressed on CHO-K1 cells (human, UniProt Q495A1 22-244); test: FACS competition, CD155 binding to CHO-TIGIT cells
T2 construct: also called CHO/human TIGIT cells; CHO-TIGIT cells
T2 sequence: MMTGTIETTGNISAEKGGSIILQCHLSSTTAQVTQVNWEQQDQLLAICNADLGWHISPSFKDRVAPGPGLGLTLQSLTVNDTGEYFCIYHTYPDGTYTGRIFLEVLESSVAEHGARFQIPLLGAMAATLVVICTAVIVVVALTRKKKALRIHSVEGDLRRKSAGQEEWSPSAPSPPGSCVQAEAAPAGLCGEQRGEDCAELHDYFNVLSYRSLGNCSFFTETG

[3] = molecular target: T2, human TIGIT expressed on CHO-K1 cells; test: FACS, CHO-TIGIT cells
[4] = molecular target: T3, cynomolgus TIGIT-His protein (Acrobiosystems) (cynomolgus, UniProt A0A7N9I9V4 89-209); test: SPR (BIAcore T200), target amine-coupled to CM5 chip
T3 construct: bought
T3 sequence (A0A7N9I9V4 entry or part of it): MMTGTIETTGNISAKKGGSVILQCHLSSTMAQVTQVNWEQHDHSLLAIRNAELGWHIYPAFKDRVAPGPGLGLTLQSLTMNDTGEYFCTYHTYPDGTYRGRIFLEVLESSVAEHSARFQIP

[5] = molecular target: T4, human TIGIT-His protein (Acrobiosystems) (human, UniProt Q495A1 22-141); test: as above
T4 construct: Bought; Genbank NP_776160
T4 sequence: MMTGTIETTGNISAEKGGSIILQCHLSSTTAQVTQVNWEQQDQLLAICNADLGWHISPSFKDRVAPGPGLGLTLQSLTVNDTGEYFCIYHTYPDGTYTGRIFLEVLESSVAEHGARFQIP

[6] = molecular target: T2, human TIGIT expressed on CHO-K1 cells; test: FACS, CHO-K1 cells expressing human TIGIT
[7] = molecular target: T3, cynomolgus TIGIT-His protein …; test: SPR (BIAcore T200), target amine-coupled to CM5 chip; remark: listed apart in the source
[8] = molecular target: T4, human TIGIT-His protein (Acrobiosystems); test: as above; remark: listed apart in the source
[9] = molecular target: T2, human TIGIT expressed on CHO-K1 cells; test: FACS competition, biotinylated CD155-Fc on CHO/human TIGIT cells
[10] = molecular target: T5, cynomolgus TIGIT expressed on CHO-K1 cells (cynomolgus, UniProt A0A7N9I9V4 89-312); test: FACS, CHO-K1 cells expressing cynomolgus TIGIT
T5 construct: whole, on cells
T5 sequence (A0A7N9I9V4 entry or part of it): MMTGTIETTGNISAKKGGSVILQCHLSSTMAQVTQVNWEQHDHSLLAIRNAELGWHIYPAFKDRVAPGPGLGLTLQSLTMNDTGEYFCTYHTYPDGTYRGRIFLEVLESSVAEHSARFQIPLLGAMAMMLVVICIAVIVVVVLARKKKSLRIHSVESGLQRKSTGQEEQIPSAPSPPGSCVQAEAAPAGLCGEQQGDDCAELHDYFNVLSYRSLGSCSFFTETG

[11] = molecular target: T1, TIGIT on TIGIT effector cells; test: cell-based or functional assay; remark: listed apart in the source
[12] = molecular target: T2, human TIGIT expressed on CHO-K1 cells; test: FACS competition, biotinylated CD155-Fc on CHO/human TIGIT cells; remark: listed apart in the source
[13] = molecular target: T5, cynomolgus TIGIT expressed on CHO-K1 …; test: FACS, CHO-K1 cells expressing cynomolgus TIGIT; remark: listed apart in the source
[14] = molecular target: T1, TIGIT on TIGIT effector cells; test: cell-based or functional assay; remark: listed apart in the source
[15] = molecular target: T2, human TIGIT expressed on CHO-K1 cells; test: FACS competition, CD155 binding to CHO-TIGIT cells; remark: listed apart in the source
[16] = molecular target: T1, TIGIT on TIGIT effector cells; test: cell-based or functional assay; remark: listed apart in the source
[17] = molecular target: T2, human TIGIT expressed on CHO-K1 cells; test: FACS, CHO-K1 cells expressing human TIGIT; remark: listed apart in the source
[18] = molecular target: T2, human TIGIT expressed on CHO-K1 cells; test: FACS, CHO-TIGIT cells; remark: listed apart in the source
[19] = molecular target: T6, mouse TIGIT-His protein (Acrobiosystems) (mouse, UniProt P86176 29-148, limits assumed); test: SPR as in Example 2
T6 construct: bought
T6 sequence (looked up): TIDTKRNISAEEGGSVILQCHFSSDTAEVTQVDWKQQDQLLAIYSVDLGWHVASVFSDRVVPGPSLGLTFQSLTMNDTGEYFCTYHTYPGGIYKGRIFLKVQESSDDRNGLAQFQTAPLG

[20] = molecular target: T7, human PD-1 (Acrobiosystems) (human, UniProt Q15116 25-167); test: SPR as in Example 2
T7 construct: bought
T7 sequence (Q15116 25-167 limits assumed): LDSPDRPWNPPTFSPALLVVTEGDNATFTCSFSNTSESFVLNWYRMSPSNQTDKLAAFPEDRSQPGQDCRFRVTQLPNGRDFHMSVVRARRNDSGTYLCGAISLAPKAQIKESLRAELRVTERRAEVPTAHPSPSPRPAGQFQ

[21] = molecular target: T8, PD-1 expressed on cells (UniProt Q15116 25-288, limits assumed); test: cell-based or functional assay
T8 sequence (Q15116 25-288 limits assumed): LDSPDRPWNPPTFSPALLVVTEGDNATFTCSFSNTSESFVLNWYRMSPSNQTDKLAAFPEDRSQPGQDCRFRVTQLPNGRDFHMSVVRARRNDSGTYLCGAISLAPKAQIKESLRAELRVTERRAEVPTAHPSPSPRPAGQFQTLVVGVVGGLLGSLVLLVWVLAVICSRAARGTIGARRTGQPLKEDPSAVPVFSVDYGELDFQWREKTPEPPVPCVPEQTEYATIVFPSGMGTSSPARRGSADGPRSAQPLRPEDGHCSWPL

[22] = molecular target: T8, PD-1 expressed on cells; test: FACS, CHO-PD-1 cells
[23] = molecular target: T8, PD-1 expressed on cells; test: FACS competition, PD-L1 binding to CHO-PD-1 cells
[24] = molecular target: T9, TIGIT on activated primary human T cells (human, UniProt Q495A1); test: FACS binding to activated, expanded primary human CD8+ T cells isolated from PBMCs; the sheet names only the cells, target by the binder's specificity as named in the filing (anti-TIGIT)
T9 sequence (receptor, looked up): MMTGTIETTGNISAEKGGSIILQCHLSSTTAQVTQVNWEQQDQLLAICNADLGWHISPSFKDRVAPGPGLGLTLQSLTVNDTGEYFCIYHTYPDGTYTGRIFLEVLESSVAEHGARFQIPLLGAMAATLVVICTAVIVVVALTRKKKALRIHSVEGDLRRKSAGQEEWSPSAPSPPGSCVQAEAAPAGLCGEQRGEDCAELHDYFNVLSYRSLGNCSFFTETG

[25] = molecular target: T4, human TIGIT-His protein (Acrobiosystems); test: SPR as in Example 2
[26] = molecular target: T9, TIGIT on activated primary human T cells; test: FACS binding to activated, expanded primary human CD4+ T cells isolated from PBMCs; the sheet names only the cells, target by the binder's specificity as named in the filing (anti-TIGIT)
[27] = molecular target: T1, TIGIT on TIGIT effector cells; test: cell-based or functional assay; remark: listed apart in the source
[28] = molecular target: T10, murine TIGIT-Fc (murine, UniProt P86176 29-148, limits assumed); test: FACS competition, murine TIGIT-Fc binding to CT26 cells (murine CD155)
T10 construct: not shown: Fc part, detected with a secondary antibody against human Fc
T10 sequence (looked up): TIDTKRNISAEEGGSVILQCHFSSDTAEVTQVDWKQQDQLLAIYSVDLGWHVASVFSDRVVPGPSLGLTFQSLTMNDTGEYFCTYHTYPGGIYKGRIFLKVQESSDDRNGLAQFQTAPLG

[29] = molecular target: T11, murine TIGIT expressed on CHO-K1 cells (murine, UniProt P86176 29-249); test: FACS, CHO-K1 cells expressing murine TIGIT
T11 construct: whole, on cells; also called CHO/mouse TIGIT; mouse TIGIT expressed on CHO cells
T11 sequence (looked up): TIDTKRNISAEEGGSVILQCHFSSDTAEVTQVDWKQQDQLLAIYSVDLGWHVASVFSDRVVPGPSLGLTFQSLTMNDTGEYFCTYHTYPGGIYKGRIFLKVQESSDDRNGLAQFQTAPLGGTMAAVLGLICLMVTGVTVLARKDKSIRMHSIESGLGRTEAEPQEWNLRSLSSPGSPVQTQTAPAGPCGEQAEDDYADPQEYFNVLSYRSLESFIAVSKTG

B1: 22G2 (IgG1) mAb (antibody, V domains shown)
VH: QVQLQESGPGLVKPSETLSLTCTVSGGSVSSGIYYWSWIRQPPGKGLEWIGYIYYSGSTNYNPSLKSRVTISVDTSKNQFSLKLSSVTAADTAVYYCARDYYVSGNYYNVDYYFFGVDVWGQGTTVTVSS
VL: EIVLTQSPATLSLSPGERATLSCRASQSVSSYLAWYQQKPGQAPRLLIYDASNRATGIPARFSGSGSGTDFTLTISSLEPEDFAVYYCQQRSNWPPLFTFGPGTKVDIKR
notes: also called 22G2 (IgG1) (anti-TIGIT)
IL-2 release assay EC50 [1]: 3.07 nM | Reporter assay EC50 [1]: 3.04 nM | EC50 [2]: 2.31 nM | EC50 [3]: 1.6 nM | Kd [4]: 4.1 nM | koff [4]: 0.0056 s⁻¹ | kon [4]: 1.3e+06 M⁻¹ s⁻¹ | Kd [5]: 0.12 nM | koff [5]: 0.00016 s⁻¹ | kon [5]: 1.4e+06 M⁻¹ s⁻¹ | EC50 [6]: 0.494 nM | Kd [7]: 3.4 nM | koff [7]: 0.0068 s⁻¹ | kon [7]: 2e+06 M⁻¹ s⁻¹ | Kd [8]: 0.19 nM | koff [8]: 0.00027 s⁻¹ | kon [8]: 1.4e+06 M⁻¹ s⁻¹ | EC50 [9]: 1.94 nM | EC50 [10]: 1.12 nM | TIGIT Reporter assay EC50 [11]: 4.65 nM | EC50 [12]: 2.7 nM | EC50 [13]: 0.604 nM | TIGIT IL-2 release EC50 [14]: 2.26 nM | TIGIT Reporter assay EC50 [14]: 6.01 nM | EC50 [15]: 1.11 nM | TIGIT/CD155 blockade reporter assay, EC50 [16]: 7.92 nM | TIGIT/CD155 blockade reporter assay, Signal span [16]: 108 | EC50 [17]: 1.14 nM | EC50 [18]: 2.46 nM

B4: 10A7 mAb (antibody, human IgG1, kappa, V domains shown)
VH: EVQLVESGGGLTQPGKSLKLSCEASGFTFSSFTMHWVRQSPGKGLEWVAFIRSGSGIVFYADAVRGRFTISRDNAKNLLFLQMNDLKSEDTAMYYCARRPLGHNTFDSWGQGTLVTVSS
VL: DIVMTQSPSSLAVSPGEKVTMTCKSSQSLYYSGVKENLLAWYQQKPGQSPKLLIYYASIRFTGVPDRFTGSGSGTDYTLTITSVQAEDMGQYFCQQGINNPLTFGDGTKLEIKR
EC50 [28]: 71.3 nM | EC50 [29]: 0.709 nM | EC50 [12]: 5.27 nM | EC50 [17]: 4.06 nM

More lines, now with the values ahead:

Kd [19]: 0.62 nM | Kd [20]: 0.42 nM | PD-1 cell based assay EC50 [21]: 2.33 nM | TIGIT IL-2 release EC50 [11]: 0.565 nM | TIGIT Reporter assay EC50 [11]: 4.03 nM | EC50 [22]: 1.92 nM | EC50 [23]: 2.21 nM
B2: BTP-13 (bispecific antibody, human IgG4 S228P, kappa)
heavy: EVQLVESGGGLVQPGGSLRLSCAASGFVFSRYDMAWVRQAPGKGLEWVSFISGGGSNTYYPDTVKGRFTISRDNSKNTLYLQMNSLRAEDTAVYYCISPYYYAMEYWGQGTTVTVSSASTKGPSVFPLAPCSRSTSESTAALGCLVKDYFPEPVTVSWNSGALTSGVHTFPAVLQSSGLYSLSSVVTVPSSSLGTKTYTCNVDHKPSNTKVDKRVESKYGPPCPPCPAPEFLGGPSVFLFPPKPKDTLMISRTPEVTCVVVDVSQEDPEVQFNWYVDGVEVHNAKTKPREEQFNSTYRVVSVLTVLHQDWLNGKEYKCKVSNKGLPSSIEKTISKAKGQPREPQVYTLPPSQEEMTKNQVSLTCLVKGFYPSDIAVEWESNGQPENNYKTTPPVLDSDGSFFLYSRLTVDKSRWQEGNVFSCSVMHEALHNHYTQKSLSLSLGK
light: EVQLVESGGGLVQPGGSLRLSCAASGYKYGVYSMGWFRQAPGKGLEGVSAICSGGRTTYSDSVKGRFTISRDNSNQILYLQMNSLRAEDTAVYYCAARPLWTGDCDLSSSWYKTWGQGTLVTVSSEPKSSDKTHTSPPSPDIQMTQSPSSVSASVGDRVTITCKASQDVDTAVAWYQQKPGKAPKLLIYWASTRHTGVPSRFSGSGSGTDFTLTISSLQPEDFATYYCQQYSTFPWTFGGGTKVEIKRTVAAPSVFIFPPSDEQLKSGTASVVCLLNNFYPREAKVQWKVDNALQSGNSQESVTEQDSKDSTYSLSSTLTLSKADYEKHKVYACEVTHQGLSSPVTKSFNRGEC
notes: AS19584VH28 - mutated hIgG1 hinge - PD1-BM-min light chain; PD1-BM-min heavy chain (IgG4); also called BTP-13 (IgG4); PD-1×TIGIT BABP

EC50 [24]: 0.174 nM | Kd [19]: 1.1 nM | Kd [25]: 0.36 nM | TIGIT Reporter assay EC50 [11]: 5.42 nM | EC50 [26]: 0.107 nM | PD-L1/TIGIT bifunctional reporter assay: EC50 [27]: 10.6 nM | PD-L1/TIGIT bifunctional reporter assay: Upper plateau of signal [27]: 1610
B3: AS19584VH28-Fc fusion protein with effectorless human IgG1 (inert hIgG1) Fc (Fc fusion)
chain: EVQLVESGGGLVQPGGSLRLSCAASGYKYGVYSMGWFRQAPGKGLEGVSAICSGGRTTYSDSVKGRFTISRDNSNQILYLQMNSLRAEDTAVYYCAARPLWTGDCDLSSSWYKTWGQGTLVTVSSAPELLGGPSVFLFPPKPKDTLMISRTPEVTCVVVDVSHEDPEVKFNWYVDGVEVHNAKTKPREEQYASTYRVVSVLTVLHQDWLNGKEYKCKVSNKALPAPIEKTISKAKGQPREPQVYTLPPSREEMTKNQVSLTCLVKGFYPSDIAVEWESNGQPENNYKTTPPVLDSDGSFFLYSKLTVDKSRWQQGNVFSCSVMHEALHNHYTQKSLSLSPGK
notes: built from the sdAb and the inert IgG1 Fc region it names; also called AS19584VH28 (inert IgG1); AS19584VH28 inert IgG1
